In US20020061531:

Assays:
[1] = test system: anti-BPDE-DNA monoclonal antibody 5D11 (Mus musculus); details: slight cross-reaction at 20 ug/mL 5D11
[2] = test system: anti-BPDE-DNA monoclonal antibody 8E11 (Mus musculus); details: single (+/-)-anti-BPDE-N2-dG adduct in the SEQ:5 segment; CE/LIF; complex formation with native duplex, 20 ug/mL (printed mg/mL) 8E11

Sequence	binding signal (% of total peak area) [1]	binding signal (fold lower than denatured) [2]
CCTTAAGCTTCCTCAACCACTTACCATACTCGAGATTCCCATTATGCATAACCGTCATATGCCGCCTCTGACCTTCCTAGAATTCCATCC [TMR control 90-mer (no BPDE), heat-denatured]	2.1	–
CCTTAAGCTTCCTCAACCACTTACCATACTCGAGATTCCCATTATGCATAACCGTCATATGCCGCCTCTGACCTTCCTAGAATTCCATCC (double strand) [TMR-BPDE-90-mer, native duplex]	–	6
